In patent US20240116985A1 (published 2024):
Starred links: 1 amine or outer side, 2 acyl side, 3 side chain; linkers in the order of their positions; H or OH if unused. Positions of bridges follow the written chain, without caps; N, C: chain ends. Non-standard residues stand in square brackets, D forms with d. Primed or numbered codes have the meaning given here. PyrS2″ = (S)-3-amino-1-((pent-4-en-1-yloxy)carbonyl)pyrrolidine-3-carboxylic acid (stapling residue), C=CCCCOC(=O)N1CC[C@@](N[*:1])(C(=O)[*:2])C1; B5(16) = 2-amino-2-(pent-4-en-1-yl)hept-6-enoic acid = 2,2-bis(4-pentenyl)glycine (stitching residue), C=CCCCC(CCCC=C)(N[*:1])C(=O)[*:2]; EtGA = (S)-2-amino-3-((carboxymethyl)(ethyl)amino)propanoic acid, CCN(CC(=O)[*:3])C[C@H](N[*:1])C(=O)[*:2]; B5(3) = 2,2-bis(4-pentenyl)glycine (stitching residue), C=CCCCC(CCCC=C)(N[*:1])C(=O)[*:2]; Bta = N[C@@H](Cc1csc2ccccc12)C(=O)O; αAllylPro = C=CC[C@@]1(C(=O)O)CCCN1; tBuAla = CC(C)(C)C[C@H](N)C(=O)O; 3Thi = N[C@@H](Cc1ccsc1)C(=O)O; Cit = NC(=O)NCCC[C@H](N)C(=O)O; S8 = C=CCCCCCC[C@](C)(N)C(=O)O

Columns and labels:
Assay in all cases: cell-based or functional assay
B-cat-Halo [1] = biological target: T1, B-cat-Halo (UniProt P35222 1-781)
T1 sequence (looked up): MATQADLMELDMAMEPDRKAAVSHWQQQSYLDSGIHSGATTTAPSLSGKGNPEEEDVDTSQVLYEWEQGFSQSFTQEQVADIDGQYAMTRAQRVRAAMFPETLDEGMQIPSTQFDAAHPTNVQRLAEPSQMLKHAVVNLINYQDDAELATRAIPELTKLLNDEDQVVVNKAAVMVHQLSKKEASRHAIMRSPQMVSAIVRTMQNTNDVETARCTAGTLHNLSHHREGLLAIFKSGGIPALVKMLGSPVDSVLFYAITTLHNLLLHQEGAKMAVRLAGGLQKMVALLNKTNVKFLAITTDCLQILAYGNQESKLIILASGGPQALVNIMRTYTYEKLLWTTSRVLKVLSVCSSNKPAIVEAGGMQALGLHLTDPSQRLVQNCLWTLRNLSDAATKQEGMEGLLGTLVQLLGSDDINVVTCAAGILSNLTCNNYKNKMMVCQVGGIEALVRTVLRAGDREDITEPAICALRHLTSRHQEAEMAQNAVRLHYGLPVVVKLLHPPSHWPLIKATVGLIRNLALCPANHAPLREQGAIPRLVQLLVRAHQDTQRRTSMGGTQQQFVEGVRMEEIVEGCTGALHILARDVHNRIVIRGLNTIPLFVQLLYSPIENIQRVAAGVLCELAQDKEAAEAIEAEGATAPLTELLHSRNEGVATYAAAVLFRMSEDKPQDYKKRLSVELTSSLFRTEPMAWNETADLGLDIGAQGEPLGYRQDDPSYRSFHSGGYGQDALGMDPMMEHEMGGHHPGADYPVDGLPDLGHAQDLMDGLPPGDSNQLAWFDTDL

[2] = biological target: T2, beta-catenin in DLD1 TCF/LEF luciferase reporter cells (UniProt P35222 2-781)
T2 sequence (looked up): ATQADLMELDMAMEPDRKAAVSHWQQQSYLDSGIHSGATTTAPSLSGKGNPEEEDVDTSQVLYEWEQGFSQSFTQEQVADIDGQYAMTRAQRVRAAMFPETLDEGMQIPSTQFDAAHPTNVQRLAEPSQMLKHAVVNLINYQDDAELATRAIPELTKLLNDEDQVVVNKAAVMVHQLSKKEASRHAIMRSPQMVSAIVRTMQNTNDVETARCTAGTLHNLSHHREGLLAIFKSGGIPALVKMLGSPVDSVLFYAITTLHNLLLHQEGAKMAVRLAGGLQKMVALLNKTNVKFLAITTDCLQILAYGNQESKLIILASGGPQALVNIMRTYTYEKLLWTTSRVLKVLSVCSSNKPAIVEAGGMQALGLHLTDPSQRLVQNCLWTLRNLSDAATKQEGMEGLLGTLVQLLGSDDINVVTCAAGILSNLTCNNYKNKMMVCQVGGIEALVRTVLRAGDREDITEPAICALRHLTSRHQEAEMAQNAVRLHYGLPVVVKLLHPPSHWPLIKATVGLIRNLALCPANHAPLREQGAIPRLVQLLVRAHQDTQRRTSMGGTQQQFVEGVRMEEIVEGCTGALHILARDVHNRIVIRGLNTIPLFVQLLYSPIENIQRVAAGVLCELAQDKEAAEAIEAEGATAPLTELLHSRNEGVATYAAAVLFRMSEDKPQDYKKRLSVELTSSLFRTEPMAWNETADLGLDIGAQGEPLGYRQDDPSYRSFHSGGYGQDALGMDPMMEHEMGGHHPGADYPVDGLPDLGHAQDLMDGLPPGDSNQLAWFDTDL

B-cat-Halo [3] = biological target: T3, B-cat-Halo (UniProt P35222 1-781); remark: listed apart in the source
T3 sequence (looked up): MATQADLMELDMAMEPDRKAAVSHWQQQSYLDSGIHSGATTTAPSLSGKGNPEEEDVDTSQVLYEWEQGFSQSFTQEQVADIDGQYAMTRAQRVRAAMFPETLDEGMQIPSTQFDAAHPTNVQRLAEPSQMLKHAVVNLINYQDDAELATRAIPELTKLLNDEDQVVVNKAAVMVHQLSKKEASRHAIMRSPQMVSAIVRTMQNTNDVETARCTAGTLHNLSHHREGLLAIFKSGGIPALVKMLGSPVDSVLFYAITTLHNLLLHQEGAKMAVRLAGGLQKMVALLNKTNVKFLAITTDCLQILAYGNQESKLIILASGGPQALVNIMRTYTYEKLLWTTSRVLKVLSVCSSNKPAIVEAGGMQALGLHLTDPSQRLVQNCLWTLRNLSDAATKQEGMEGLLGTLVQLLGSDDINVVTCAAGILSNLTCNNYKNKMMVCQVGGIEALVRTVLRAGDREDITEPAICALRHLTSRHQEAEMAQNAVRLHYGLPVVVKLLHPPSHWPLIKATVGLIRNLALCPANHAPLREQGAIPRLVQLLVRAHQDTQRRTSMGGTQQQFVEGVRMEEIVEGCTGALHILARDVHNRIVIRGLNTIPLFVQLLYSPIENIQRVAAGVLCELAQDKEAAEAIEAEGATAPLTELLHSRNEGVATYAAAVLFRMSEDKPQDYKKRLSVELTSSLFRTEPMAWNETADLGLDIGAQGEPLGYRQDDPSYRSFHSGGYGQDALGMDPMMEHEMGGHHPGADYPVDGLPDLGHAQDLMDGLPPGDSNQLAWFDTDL

Binder	NanoBRET Abs IC50 (B-cat-Halo [1])	DLD1 4% Abs IC50 [2]	NanoBRET Abs IC50 (B-cat-Halo [3])
Ac-[αAllylPro]DL[B5(16)]DEAAF[Cit][S8]F[Bta]-NH2 (staple 1-4, 4-11; not fully specified; printed as Ac-PL3-Asp-Leu-B5-Asp-Glu-Ala-Ala-Phe-Cit-S8-Phe-BztA-NH2) [I-629]	30 µM	–	–
Ac-[αAllylPro]D[tBuAla][B5(3)]D[EtGA]AAFL[PyrS2″][3Thi][Bta]Q-NH2 (staple 1-4, 4-11; also: later-eluting HPLC isomer) [I-973]	–	10.1 µM	19 µM
